# Laboratory results taken from US20200010836A1, “Regulation of Gene Expression by Aptamer-Mediated Accessibility of Polyadenylation Signals” (MEIRAGTX, UK II Limited, priority 2017, published 2020).
# Changes are numbered by the printed parent chain.
# B1: DSE_Gua_1: SEQ ID NO: 5; xpt-guanine aptamer linked to 3′ end of 9 bp stem-loop embedding DSE of SV40 early polyA (nucleic acid)
# DNA: AAGGCCAAGAAGGGCGGAAAGATCGCCGTGTAAGCCATACCACATTTGTAGAGGTTTTACTTGCTTTAAAAAACCTCCCACACCTCCCCCTGAACCTGAAACATAAAATGAATGCAATTGTTGTTGTTAACTTGTTTATTGCAGCTTATAATGGTTACAAATAAAGCAATAGCATCACAAATTTCACAAATAAAGCATTTTTTTCACTGCATTCTAGTTGTGGTTTGTCCGAAAGGACAAACCATAATCGCGTGGATATGGCACGCAAGTTTCTACCGGGCACCGTAAATGTCCGACTGGTTTGTAAACTCATCAATGTATCTTAACGCGT
# B2: DSE_Gua_4: SEQ ID NO: 8; xpt-guanine aptamer linked to 14 bp stem-loop embedding DSE (nucleic acid)
# DNA: AAGGCCAAGAAGGGCGGAAAGATCGCCGTGTAAGCCATACCACATTTGTAGAGGTTTTACTTGCTTTAAAAAACCTCCCACACCTCCCCCTGAACCTGAAACATAAAATGAATGCAATTGTTGTTGTTAACTTGTTTATTGCAGCTTATAATGGTTACAAATAAAGCAATAGCATCACAAATTTCACAAATAAAGCATTTTTTTCACTGCATTCTAGTTGTGGTTTGTCCGAAAGGACAAACCACAACATAATCGCGTGGATATGGCACGCAAGTTTCTACCGGGCACCGTAAATGTCCGACTGTTGTGGAAACTCATCAATGTATCTTAACGCGT
# B3: SPA_ATA_Gua: SEQ ID NO: 10; xpt-guanine aptamer linked to stem-loop embedding AATAAA of synthetic polyA sequence (nucleic acid)
# DNA: AAGGCCAAGAAGGGCGGAAAGATCGCCGTGTAAGGATCCAAGCTTATCGATACCGTCGACCTCGAGGGCCCAGATCTGCGGCAAAAGGTATAATCGCGTGGATATGGCACGCAAGTTTCTACCGGGCACCGTAAATGTCCGACTACCTTTTATTGGAAACAATAAAAGATCTTTATTTTCATTAGATCTGTGTGTTGGTTTTTTGTGTGTCTAGAAATAATTCTTACT
# B4: SPA_DSE_Gua: SEQ ID NO: 11; xpt-guanine aptamer linked to 3′ end of stem-loop embedding DSE of synthetic polyA (nucleic acid)
# DNA: AAGGCCAAGAAGGGCGGAAAGATCGCCGTGTAAGGATCCAAGCTTATCGATACCGTCGACCTCGAGGGCCCAGATCTGCGGCCGCAATAAAAGATCTTTATTTTCATTAGATCTGTGTGTTGGTTTTTTGTGTGTCGAAAGACACACAATATAATCGCGTGGATATGGCACGCAAGTTTCTACCGGGCACCGTAAATGTCCGACTATTGTGTGGAAATAATTCTTACT
# B5: mtSPA_ATA_Gua: SEQ ID NO: 13; xpt-guanine aptamer with 9 bp stem embedding AATAAA of mtSPA, 2 GC base pairs added (nucleic acid)
# DNA: AAGGCCAAGAAGGGCGGAAAGATCGCCGTGTAAGGATCCAAGCTTATCGATACCGTCGACCTCGAGGGCCCAGATCTGCGGAAAAGGTATAATCGCGTGGATATGGCACGCAAGTTTCTACCGGGCACCGTAAATGTCCGACTACCTTTTATTGCGAAAGCAATAAAATATCTTTATTTTCATTACATCTGTGTGTTGGTTTTTTGTGTGTCTAGAAATAATTCTTACT
# B6: ATA_Gua_1: luciferase construct, SEQ ID NO: 1; xpt-guanine aptamer linked to 9 bp effector stem-loop (GAAA loop) embedding AATAAA of SV40 early polyA (nucleic acid)
# DNA: AAGGCCAAGAAGGGCGGAAAGATCGCCGTGTAAGCCATACCACATTTGTAGAGGTTTTACTTGCTTTAAAAAACCTCCCACACCTCCCCCTGAACCTGAAACATAAAATGAATGCAATTGTTGTTGTTAACTTGTTTATTGCAGCTTATAATGGTTACAAATAAAGCAATAGCATCACAAATTTCTAAAGGTATAATCGCGTGGATATGGCACGCAAGTTTCTACCGGGCACCGTAAATGTCCGACTACCTTTATTTCGAAAGAAATAAAGCATTTTTTTCACTGCATTCTAGTTGTGGTTTGTCCAAACTCATCAATGTATCTTAACGCGT
# B7: gaat_ATA_Gua_1: SEQ ID NO: 15; ATA_Gua_1 variant containing GAAT loop (nucleic acid)
# DNA: B6 DNA with A262T
# B8: Stbl_ATA_Gua_1: SEQ ID NO: 14; ATA_Gua_1 with GAAA loop replaced by more stable TTCG loop (nucleic acid)
# DNA: B6 DNA with G259T, A260T, A261C, A262G
# B9: ATA_Ydhl: SEQ ID NO: 17; adenine aptamer ydhl-A linked to 9 bp TTCG stem-loop embedding AATAAA, P1 stem 10 bp (nucleic acid)
# DNA: AAGGCCAAGAAGGGCGGAAAGATCGCCGTGTAAGCCATACCACATTTGTAGAGGTTTTACTTGCTTTAAAAAACCTCCCACACCTCCCCCTGAACCTGAAACATAAAATGAATGCAATTGTTGTTGTTAACTTGTTTATTGCAGCTTATAATGGTTACAAATAAAGCAATAGCATCACAAATTTCAATAAAGGTATAACCTCAATAATATGGTTTGAGGGTGTCTACCAGGAACCGTAAAATCCTGATTACCTTTATTTCTTCGGAAATAAAGCATTTTTTTCACTGCATTCTAGTTGTGGTTTGTCCAAACTCATCAATGTATCTTAACGCGT
# B10: ATA_DSE_Gua: SEQ ID NO: 16; pFLuc construct containing both ATA_Gua_1 and DSE_Gua_1 switches (nucleic acid)
# DNA: AAGGCCAAGAAGGGCGGAAAGATCGCCGTGTAAGCCATACCACATTTGTAGAGGTTTTACTTGCTTTAAAAAACCTCCCACACCTCCCCCTGAACCTGAAACATAAAATGAATGCAATTGTTGTTGTTAACTTGTTTATTGCAGCTTATAATGGTTACAAATAAAGCAATAGCATCACAAATTTCTAAAGGTATAATCGCGTGGATATGGCACGCAAGTTTCTACCGGGCACCGTAAATGTCCGACTACCTTTATTTCGAAAGAAATAAAGCATTTTTTTCACTGCATTCTAGTTGTGGTTTGTCCGAAAGGACAAACCATAATCGCGTGGATATGGCACGCAAGTTTCTACCGGGCACCGTAAATGTCCGACTGGTTTGTAAACTCATCAATGTATCTTAACGCGT
# B11: DSE_Gua_2: SEQ ID NO: 6; xpt-guanine aptamer linked to 10 bp stem-loop embedding DSE (nucleic acid)
# DNA: AAGGCCAAGAAGGGCGGAAAGATCGCCGTGTAAGCCATACCACATTTGTAGAGGTTTTACTTGCTTTAAAAAACCTCCCACACCTCCCCCTGAACCTGAAACATAAAATGAATGCAATTGTTGTTGTTAACTTGTTTATTGCAGCTTATAATGGTTACAAATAAAGCAATAGCATCACAAATTTCACAAATAAAGCATTTTTTTCACTGCATTCTAGTTGTGGTTTGTCCGAAAGGACAAACCAATAATCGCGTGGATATGGCACGCAAGTTTCTACCGGGCACCGTAAATGTCCGACTTGGTTTGAAACTCATCAATGTATCTTAACGCGT
# Columns and labels:
# [1] = tested on: luciferase expression; experiment: Firefly luciferase assay of HEK 293 cells transfected with riboswitch constructs, treated with guanosine or guanine; type: cell-based; details: for basal luciferase expression reduced by % versus control construct pFLuc / basal level luciferase expression, % of the pFLuc control vector: absence of guanine treatment; for basal luciferase expression reduced by % versus control construct pFLuc: given as 'reduced by'; for basal level luciferase expression in the absence of guanine (comparison in words): no guanine, compared with control or parent construct; for induction fold of luciferase activity (presence / absence of guanine): 500 μM guanine vs NaOH solvent control; for induction fold of luciferase activity (presence / absence of guanosine): 500 μM guanosine vs DMSO solvent control; for fold induction by guanine compared with other constructs: 500 μM guanine
# Description: (§1) Transfection and aptamer ligand treatment: 3.5×10^4 HEK 293 cells were plated in a 96-well flat bottom plate the day before transfection. Plasmid DNA (500 ng) was added to a tube or a 96-well U-bottom plate. Separately, TransIT-293 reagent (Minis; 1.4 μl) was added to 50 μl opti-mem I media (Life Technologies), and allowed to sit for 5 minutes at room temperature (“RT”). Then, 50 μl of this diluted transfection reagent was added to the DNA, mixed, and incubated at RT for 20 min. Finally, 7 μl of this solution was added to a well of cells in a 96-well plate. Four hours after transfection, the media was aspirated, and new media was added with (i) DMSO (0.5%) or 500 μM guanosine; or (ii) NaOH (2 mM) as solvent control or 500 μM guanine. The induction fold was expressed as the quotient of luciferase activity obtained in the presence of aptamer ligand divided by the value obtained in the absence of the aptamer ligand.
# (§2) Firefly luciferase assay of cultured cells: Twenty-four hours after media change, plates were removed from the incubator, and equilibrated to RT for several minutes on a lab bench, then aspirated. Glo-lysis buffer (Promega, […]) was added, and the plates allowed to remain at RT for at least 5 minutes. Then, the well contents were mixed by 50 μL trituration, and 20 μL of each sample was mixed with 20 μL of bright-glo reagent (Promega) that had been diluted to 10% in glo-lysis buffer. 96 wells were spaced on an opaque white 384-well plate. Following a 5-min incubation at RT, luminescence was measured using Tecan machine with 500 mSec read time. The luciferase activity was expressed as mean relative light unit (RLU)±S.D.
# [2] = tested on: luciferase expression; experiment: Firefly luciferase assay of HEK 293 cells transfected with adenine aptamer construct, treated with adenine; type: cell-based
# Description: as §1, §2
# Four hours after transfection, the media was aspirated, and new media with NaOH (1 mM) or 1 mM adenine (Calbiochem) was added. The induction fold was expressed as the quotient of luciferase activity obtained in the presence of aptamer ligand divided by the value obtained in the absence of the aptamer ligand.
molecule,measurement,setting,value
B1,basal luciferase expression reduced by % versus control construct pFLuc,[1],35%
B2,luciferase activity in the absence of aptamer ligand guanosine (comparison in words),"[1]; DMSO treated, compared among constructs and with pFLuc-SV40",lowest
same,"basal level luciferase expression, % of the pFLuc control vector",[1],~80%
B3,basal level luciferase expression in the absence of guanine (comparison in words),[1],did not result in reduced luciferase activity
B4,induction fold of luciferase activity (presence / absence of guanine),[1],1.9 fold
B5,induction fold of luciferase activity (presence / absence of guanine),[1],1.7 fold
same,basal level luciferase expression in the absence of guanine (comparison in words),[1],decreased
B6,induction fold of luciferase activity (presence / absence of guanosine),[1],6.7 fold
same,basal luciferase expression reduced by % versus control construct pFLuc,[1],45%
B7,fold induction by guanine compared with other constructs,[1],slightly lower fold induction
same,basal level luciferase expression in the absence of guanine (comparison in words),[1],higher basal level luciferase
B8,fold induction by guanine compared with other constructs,[1],higher induction fold
same,basal level luciferase expression in the absence of guanine (comparison in words),[1],lower luciferase activity
B9,"luciferase expression in the presence of adenine, % of the control pFLuc construct in the presence of adenine",[2]; 1 mM adenine,approximately 82%
same,fold increase in luciferase expression on adenine treatment,[2]; 1 mM adenine vs NaOH solvent control,4.0 fold
same,"luciferase level in the absence of adenine, % of the control pFLuc construct",[2]; absence of adenine treatment,approximately 52%
B10,induction fold of luciferase activity (presence / absence of guanine),[1],approximately 2.1 fold
same,"basal level luciferase expression, % of the pFLuc control vector",[1],20%
same,basal level luciferase expression in the absence of guanine (comparison in words),[1],further decreases the basal level
B11,induction fold of luciferase activity (presence / absence of guanosine),[1],3.7 fold
